Source: PMC8287928

Target: SARS-CoV-2 spike pseudotyped lentivirus (PV) (SARS-CoV-2 (Wuhan-Hu-1)) (UniProt P0DTC2)
Assay: dot blot (filter binding)

Sequence | Kd [nM]
TTACGTCAAGGTGTCACTCCACGGGTTTGGCGTCGGGCCTGGCGGGGGGATAGTGCGGTGGAAGCATCTCTTTGGCGTG [MSA5] | 0.0118
TTACGTCAAGGTGTCACTCCCACTTTCCGGTTAATTTATGCTCTACCCGTCCACCTACCGGAAGCATCTCTTTGGCGTG [MSA1] | 0.0227
